The chains are these.
B5: major capsid protein (MCP) pb8 (natural protein, bacteriophage T5, UniProt Q6QGD8 160-458, looked up)
chain: AVNQSSSVEVSSESYETIFSQRIIRDLQKELVVGALFEELPMSSKILTMLVEPDAGKATWVAASTYGTDTTTGEEVKGALKEIHFSTYKLAAKSFITDETEEDAIFSLLPLLRKRLIEAHAVSIEEAFMTGDGSGKPKGLLTLASEDSAKVVTEAKADGSVLVTAKTISKLRRKLGRHGLKLSKLVLIVSMDAYYDLLEDEEWQDVAQVGNDSVKLQGQVGRIYGLPVVVSEYFPAKANSAEFAVIVYKDNFVMPRQRAVTVERERQAGKQRDAYYVTQRVNLQRYFANGVVSGTYAAS
notes: major capsid protein pb8 of bacteriophage T5, 458 residues; atomic model built for residues 164-457; also called MCP gp8; gp8

What all share (test): cryo-EM structure; mature T5 virions (fiberless mutant) purified by CsCl gradients, in buffer A (100 mM NaCl, 1 mM MgSO4, 1 mM CaCl2, 10 mM Tris-HCl, pH 7.6); icosahedral, symmetry-mismatch and local reconstructions of head, portal, connector, tail tube and tail tip
Series [1] has as its target adaptor protein p144 (bacteriophage T5).
Series [2] has as its target tail terminator protein p142 (bacteriophage T5).
Series [3] deals with the molecule itself.
Series [4] concerns the target B5. Particulars: both partners purified.

Usually stoichiometry N stands for a count of units in the complex or per binding partner. Regarding adaptor protein p144 (natural protein), in series [1], the stoichiometry N was 12.

“tail terminator protein p142 (natural protein)”: the stoichiometry N in series [2] amounted to 6.

B1: tail tube protein (TTP) pb6 (natural protein, bacteriophage T5)
chain: MSLQLLRNTRIFVSTVKTGHNKTNTQEILVQDDISWGQDSNSTDITVNEAGPRPTRGSKRFNDSLNAAEWSFSTYILPYKDKNTSKQIVPDYMLWHALSSGRAINLEGTTGAHNNATNFMVNFKDNSYHELAMLHIYILTDKTWSYIDSCQINQAEVNVDIEDIGRVTWSGNGNQLIPLDEQPFDPDQIGIDDETYMTIQGSYIKNKLTILKIKDMDTNKSYDIPITGGTFTINNNITYLTPNVMSRVTIPIGSFTGAFELTGSLTAYLNDKSLGSMELYKDLIKTLKVVNRFEIALVLGGEYDDERPAAILVAKQAHVNIPTIETDDVLGTSVEFKAIPSDLDAGDEGYLGFSSKYTRTTINNLIVNGDGATDAVTAITVKSAGNVTTLNRSATLQMSVEVTPSSARNKEVTWAITAGDAATINATGLLRADASKTGAVTVEATAKDGSGVKGTKVITVTAGG
notes: tail tube protein pb6 of bacteriophage T5; domains pb6D1, pb6D2 and a protruding Ig-like domain; atomic model built for residues 3-378 (pb6D1 and pb6D2); The tail tube has 40 stacked trimeric rings
On to B1, for which the “stoichiometry N” value in series [3] turned out to be 3.

B2: p140 (natural protein, bacteriophage T5)
chain: MFYSLMRESKIVIEYDGRGYHFDALSNYDASTSFQEFKTLRRTIHNRTNYADSIINAQDPSSISLAINFSTTLIESNFFDWMGFTREGNSLFLPRNTPNIEPIMFNMYIINHNNSCIYFENCYVSTVDFSLDKSIPILNVGIESGKFSEVSTFRDGYTITQGEVLPYSAPAVYTNSSPLPALISASMSFQQQCSWREDRNIFDINKIYTNKRAYVNEMNASATLAFYYVKRLVGDKFLNLDPETRTPLIIKNKYVSITFPLARISKRLNFSDLYQVEYDVIPTADSDPVEINFFGERK
notes: tail tip complex protein p140 of bacteriophage T5
Take B2: in series [3], the “stoichiometry N” value stood at 3.

B3: decoration protein pb10 (natural protein, bacteriophage T5, UniProt Q6QGD6 1-164, looked up)
chain: MIDYSGLRTIFGEKLPESHIFFATVAAHKYVPSYAFLRRELGLSSAHTNRKVWKKFVEAYGKAIPPAPPAPPLTLSKDLTASMSVEEGAALTLSVTATGGTGPYTYAWTKDGSPIPDASGATYTKPTAAAEDAGSYKVTVTDSKQVSKDSTTCAVTVNPTVPGG
notes: decoration protein pb10 of bacteriophage T5, 164 residues; alpha-helical domain and Ig-like domain; only residues 2-68 (alpha-helical domain) were resolved; One pb10 at the centre of each hexon; the Ig-like domain is flexible and was not modelled; also called gp10
B3: the binding result in series [4] is “binds”.

B4: distal tail protein pb9 (natural protein, bacteriophage T5)
chain: MRLPDPYTNPEYPGLGFESVNLVDNDPMIRDELPNGKVKEVKISAQYWGINISYPELFPDEYAFLDSRLLEYKRTGDYLDVLLPQYEAFRVRGDTKSVTIPAGQKGSQIILNTNGTLTGQPKAGDLFKLSTHPKVYKITNFSSSGNVWNISLYPDLFITTTGSEKPVFNGILFRTKLMNGDSFGSTLNNNGTYSGISLSLRESL
notes: distal tail protein pb9 of bacteriophage T5
Regarding B4, the “stoichiometry N” value in series [3] was 6.

On to B5, for which the “stoichiometry N” value in series [3] was 775.

B6: portal protein pb7 (natural protein, bacteriophage T5)
chain: LNPGQRIIRDMEPVSHRTNRKPFTTGQAYSKIEILNRTANMVIDSAAECSYTVGDKYNIVTYANGVKTKTLDTLLNVRPNPFMDISTFRRLVVTDLLFEGCAYIYWDGTSLYHVPAALMQVEADANKFIKKFIFNNQINYRVDEIIFIKDNSYVCGTNSQISGQSRVATVIDSLEKRSKMLNFKEKFLDNGTVIGLILETDEILNKKLRERKQEELQLDYNPSTGQSSVLILDGGMKAKPYSQISSFKDLDFKEDIEGFNKSICLAFGVPQVLLDGGNNANIRPNIELFYYMTIIPMLNKLTSSLTFFFGYKITPNTKEVAALTPDKEAEAKHLTSLVNNGIITGNEARSELNLEPLDDEQMNKIRIPANVAGSATGVSGQEGGRPKGSTEGD
notes: portal protein pb7 of bacteriophage T5, 403 residues in total; atomic model built for residues 11-377; source: also in virions treated with 4 M urea for 2 h at 37 °C and dialyzed; copies: 12
Consider B6, for which, in series [3], the “stoichiometry N” value turned out to be 12.

B7: baseplate hub protein pb3 (natural protein, bacteriophage T5)
chain: MKKILDSAKNYLNTHDKLKTACLIALELPSSSGSAATYIYLTDYFRDVTYNGILYRSGKVKSISSHKQNRQLSIGSLSFTITGTAEDEVLKLVQNGVSFLDRGITIHQAIINEEGNILPVDPDTDGPLLFFRGRITGGGIKDNVNTSGIGTSVITWNCSNQFYDFDRVNGRYTDDASHRGLEVVNGTLQPSNGAKRPEYQEDYGFFHSNKSTTILAKYQVKEERYKLQSKKKLFGLSRSYSLKKYYETVTKEVDLDFNLAAKFIPVVYGVQKIPGIPIFADTELNNPNIVYVVYAFAEGEIDGFLDFYIGDSPMICFDETDSDTRTCFGRKKIVGDTMHRLAAGTSTSQPSVHGQEYKYNDGNGDIRIWTFHGKPDQTAAQVLVDIAKKKGFYLQNQNGNGPEYWDSRYKLLDTAYAIVRFTINENRTEIPEISAEVQGKKVKVYNSDGTIKADKTSLNGIWQLMDYLTSDRYGADITLDQFPLQKVISEAKILDIIDESYQTSWQPYWRYVGWNDPLSENRQIVQLNTILDTSESVFKNVQGILESFGGAINNLSGEYRITVEKYSTNPLRINFLDTYGDLDLSDTTGRNKFNSVQASLVDPALSWKTNSITFYNSKFKEQDKGLDKKLQLSFANITNYYTARSYADRELKKSRYSRTLSFSVPYKFIGIEPNDPIAFTYERYGWKDKFFLVDEVENTRDGKINLVLQEYGEDVFINSEQVDNSGNDIPDISNNVLPPRDFKYTPTPGGVVGAIGKNGELSWLPSLTNNVVYYSIAHSGHVNPYIVQQLENNPNERMIQEIIGEPAGLAIFELRAVDINGRRSSPVTLSVDLNSAKNLSVVSNFRVVNTASGDVTEFVGPDVKLAWDKIPEEEIIPEIYYTLEIYDSQDRMLRSVRIEDVYTYDYLLTYNKADFALLNSGALGINRKLRFRIRAEGENGEQSVGWATI
notes: baseplate hub protein pb3 of bacteriophage T5
Regarding B7, the “stoichiometry N” value in series [3] was 3.

These data come from publication PMC11313276, “Structures of Mature and Urea-Treated Empty Bacteriophage T5: Insights into Siphophage Infection and DNA Ejection” (International Journal of Molecular Sciences, 2024).
